{
  "source": "the DeepSol protein solubility set",
  "data": [
    {"test": "soluble on expression in E. coli; label from the status in PepcDB or PDB records", "values": [
      {"sequence": "MKIEEEFISASVNPRSHCLTACKTAPLVAYASSLQIAVQTIPKDDSEVGVIKSTSERRHQKPITVLKRLKSSEIVADEFVTGGVDSRVVLWKLRGEHVEYVADLTGCDGSVGSVCGCVEDGRKVVAAAWVSETSNGFHAWWTSSIGDLLNSTEIKLDHKAFALCLDAISIQNSVLLAVGTSKRFVELYGESADKKSFSRLISVAGHTDWIHSIAFNDNPDHLLVASAGQDTYVRLWAIEPETDEKSENIREDSSTTPPDELTSSANLFSINYTPYRCSSHAVMQGHDDWVHSTVWSNDGRVLLTASSDKTCIIWKEIDNLWRDDVRLGIVGGGQAAGFFAAVFSSSLDLKDSGEKNAENVVISSSYFGGLHCWKSTDEQKTFWTALPMTGGHVGEVRDVDWHRSDDGDSGFLMSVGQDQTTRVFAKNGRQQSYVEIARPQVHGHDMQCLSFVNPSIFVSGAEEKVFRAFRAPKSFVKSLEAISGVPTEKSFGDSDLAEFGACVPALGLSNKPMVEGETVDGEHWEEDAFRAAPVVLTSPPTEDTLQQNTLWPEQHKLYGHGYEVYAVTANPTGNVLATACKSSHVEHSVVMLWSTSNWSKKSEIIGHQLTVTQIAWNPSGTRLLTVSRDRTAKLYTEKNGEVDGFDYDCVWTSGKQHTRIIWACDWIDDEHFVTASRDQKVIVWAESAGQTAPKATVKLDEPVTAIAAVSKDVIVAGLQTGELIVLRFDSEGLHVIEKIGANRIPIDSAVLRLRFSKNGRKLAVATTDAKLRIFNVSQ", "soluble on expression in E. coli": "not soluble"},
      {"sequence": "MAHHHHHHMAEHLLEQLRDVMVLQPSDGAVGNGEMDTSAANSHKYSVVSTFTNSPFVAVLEDTENNEDDEKELIRLLDELSHRIHCSDAADDVERPSGSFAVEKVEAPTLRASHMAPPIYGSPAPAGGSPFNYASCVSQTTKPPPSFAEAVATTPPLSEVPVELSPLAAHYVPPMPAVQQDPILLRNTHGVFMLRPITKPTPPYTPPSLTSSISQPPRYALPPAALPQSQPHFLGSSLAQVGGLADAQIPKKSSFSPYEIPHSMNNVIGGSQILGTGGAGNYTYISTSVKSKSTSHMQPPPPYPS", "soluble on expression in E. coli": "not soluble"},
      {"sequence": "MAQGNQQIDNQVLHHLRQKFPEVPEDVVCECVLQNKSDLAACCEYLTKVSPRFLYSEGSQSLTDLRNHMTQLNLGVSQNTHGAVQRDAVGMNGSRTLAPSVSDGPLNVPSALSEFYQPETPSVPTHTPASLSMESTRKPQPPQHLGLYQVGGKGHAPPQAPRFNPITVTLAPNTGRNTPTSLHIHGGPQSGLNSPNSIYIRPYVTQPGSTRQVQCRAQYSPTSQPAQQIYQITHPAAPQSSWSQHQTSHVYMPISSPTNTHTHTRFTCVCARVRMPVCLIHGNGR", "soluble on expression in E. coli": "not soluble"},
      {"sequence": "MSLKPKRILLVNEQRSFQVMMKAMLINIGISRITYANSAEEARRRCQKETFDIYLLDYELGVGENGRQLLESLRDQKLIPPQSVVIMVSGDSSRAMVLSALEAEPDEYLMKPFSQEQFSFRLKRALARRQALESVFSALAKEDLPTLLAACAERADAVPRFANFCRCLQADTQLKLGQAKEARSLMRQLLAGQENSWARLTLGKACHTLGLNEEAVSHLQATLKNTPLMVEAHLWLAESQLALGNDEQAQQELKRAVDISPQSVQLSRRLAEVCLLRHDYAQAKDVLLSLIDLSRNSIHRTPHYLGAYIQSLTLYALNSNDIYHIANLQKQVNSALSRIRDSLMMSEFNYPVFEQICQARVQIALGELLKGKKMLYRANQNWLDQPATMPPSLLGETILALYQLGEFEYAESLQALLAEDEDRLLTTCIQATRDDKTVLERRQRYQQLNELGIKAYQSGELEQALGHFREALRRAPANTGAALNKIQVLLQLMQKNRKSPEFGAECKETLEVLDGIPLNPAQQDRFRKLRQEFTQLSEGHHHHHH", "soluble on expression in E. coli": "soluble"},
      {"sequence": "IHTSPYSKDAPLVASLSVNQKITGRNSEKDVRHIEIDLGDSGLRYQPGDALGVWYQNDPALVKELVELLWLKGDEPVTVEGKTLPLNEALQWHFELTVNTANIVENYATLTRSETLLPLVGDKAKLQHYAATTPIVDMVRFSPAQLDAEALINLLRPLTPRLYSIASSQAEVENEVHVTVGVVRYDVEGRARAGGASSFLADRVEEEGEVRVFIEHNDNFRLPANPETPVIMIGPGTGIAPFRAFMQQRAADEAPGKNWLFFGNPHFTEDFLYQVEWQRYVKEGVLTRIDLAWSRDQKEKVYVQDKLREQGAELWRWINDGAHIYVCGDANRMAKDVEQALLEVIAEFGGMDTEAADEFLSELRVERRYQRDVY", "soluble on expression in E. coli": "soluble"},
      {"sequence": "MIGGLFVYNHKGEVLISRIYRDDVTRNAVDAFRVNVIHARQQVRSPVTNMARTSFFHVKRGNVWICAVTRQNVNAAMVFEFLKRFADTMQSYFGKLNEENVKNNFVLIYELLDEILDFGYPQNTDPGVLKTFITQQGVRTATKEEQSQITSQVTGQIGWRREGIKYRRNELFLDVIEYVNLLMNQQGQVLSAHVAGKVAMKSYLSGMPECKFGINDKITIEGKSKPGSDDPNKASRAAVAIDDCQFHQCVKLTKFETEHAISFIPPDGEYELMRYRTTKDIQLPFRVIPLVREVSRNKMEVKVVVKSNFKPSLLAQKLEVRIPTPPNTSGVQLICMKGKAKYKAGENAIVWKIKRMAGMKESQISAEIDLLSTGNVEKKKWNRPPVSMNFEVPFAPSGLKVRYLKVFEPKLNYSDHDVIKWVRYIGRSGLYETRC", "soluble on expression in E. coli": "not soluble"},
      {"sequence": "MGNQAGSKTKLVIIQGPTASGKSELAVRLAEACGGDVVNADSMQVYRGMDIGTAKPSPELVARVPHHLYDIVDPDVNFTAADYRREAGRVITEIHSRGKRPILVGGTGLYIKTLIGGLAPSPGADDTIRAELEEDARSEGAAALHDRLAQVDPAAAARLHPNDRVRIVRALEVFLMTGKPLSEFQEEHRFADEPYDCLKLGISVERDDLYRRINERVNRMFAEGFVEEVSGLLNAGYSPDLKAMGAIGYKEVCAYLAGTCSLDEARELVQRNTRRYAKRQLTWFRKDPAIKWVEYPANFDSISTIAMKFFGLEHHHHHH", "soluble on expression in E. coli": "not soluble"},
      {"sequence": "MGANALDFYPEPLREEIERLNGRIYPAVNNGVYRAGFATRQDAYEEAFVQLFEELDYLEGLLGERRYLAGEYLTEADIRLFTTLVRFDAVYHGHFKCNLRRIEDYPNLSGWLRELYQRPGIGETVLEHHHHHH", "soluble on expression in E. coli": "not soluble"},
      {"sequence": "MDRFMAGDLEVRCEVIYRRVKNPRIELRFDSLRLILPADFTGDPMEVLSSRSDWIQRKIHEFHEMLERASDMELEYRRDKELRSLVSGFLDHYSDVLGVEYGRVRFRRMRSRWGSCSSRGNLSFNTLLSHLPDRMVEYVVLHELAHLREMNHSPRFWGILESEMPDCTERRRMLRYYWARLYMEGLVDLEHHHHHH", "soluble on expression in E. coli": "soluble"},
      {"sequence": "MRDIDGGTMGYRVGVDIGGSFTDFAVFDEDNGEIKSLKVFSRPDQPGEEVIAGVRMLGERYGIQPEQITYFTHGTTVGINTVIQRKGLKLALFTTENFSDVLELARLKTPDMYHLLSRRPAPLVKRSMVFGIAERMGPDGTVRAPLDEASVERAVRQALDAGAEGIVVSLLHAYRNPAHELRVREIAEALA", "soluble on expression in E. coli": "not soluble"},
      {"sequence": "MIKISYSPYTLKPVQSLNAATAATAREGVLLKVEWNDGLYGFADLHPWPELGDLSLEEQLSDLRMGRMTTQIEQSIWLARRDALLRKEKKHVFDGGEKIKNNYLLSHFQDLKPGFLDGLKNEGYNTVKVKMGRDLQKEADMLTHIAASGMRMRLDFNALGSWQTFEKFMVNLPLTVRPLIEYVEDPFPFDFHAWGEARKLAKIALDNQYDKVPWGKIASAPFDVIVIKPAKTDVDKAVAQCQKWNLKLAVTSYMDHPVGVVHAVGVAMELKDKYGDMILESGCLTHRLYQMDSFAAELSTQGPYLLKNKGTGVGFDKLLEALTWYQLKVR", "soluble on expression in E. coli": "soluble"},
      {"sequence": "MSTIKIVPLGGVRENGKNMYVAEVEDEIFVLDCGLQYPENELLGIDVVIPDFTYLEENSERIAGVFLTHGHADAIGALPYLLSKIQVPVFGTELTIELAKLSVNSHAETKKFKDFHVIDPHTEIDFGQATVSFFKTTHTIPDSIGVSIKTKEGNIVYTGDFKFDQSAIEMYQTDYGRLAEIGKEGVLALLSDSSNAENPAQVASEAQIADEVFDTIRYWEGRIIVACVASNLQRVQQVLNAADRSGRKVVLTGQDFERIIRTAMKLEKLQLPSEDLLVKPKEMKKYAPEQLLILETGRMGEPIKSLQKMANNTHGVVRIEEGDLVYITTTPTTAMETTVAKTEDIVYRAGATVKQISDNLRVSGHANPNDLQLMLNLMKPKYFIPVQGEYRQLAAHADLAHEIGMPYKDIFITGRGDILEYTKGRMSVAGSTTAENIMIDGIGVGDIGNIVLRDRRILSEDGIFVAVVTINRREKRIVSPAKITSRGFVYVKTSKDLMKESSNIVTEIVEKHLESDDFEWSKLKQEIRENLSRYLFEQTKRRPVILPVIMEATQRKRPKNNA", "soluble on expression in E. coli": "not soluble"},
      {"sequence": "MIVLGIESSCDETGVGIIDLADDGTMTIVGDAVASSMEQHARFGGVVPEIASRAHLESMIPVMKEALAQAGVERPDAVAATVGPGLAGALLVGASAAKAYAAAWGVPFYGVNHLGGHVAVANLEGEELPHSIALLVSGGHTQILEVQAVGKPMRELGSTLDDAAGEAYDKVARLLGLGYPGGPVVDKLAARGNRKAIRFPRGLSRADDLRGEHRYDFSFSGVKTSVARYVESAEREGRVISVEDVCASFQEAVVDVLTSKAIMACKDTGASVLLLGGGVAANSRLRELAAARCQSASIELRVPSFKLCTDNGVMIAAVASQLIHEGAQPSGLSVGTDTSLEVEIPLVHSL", "soluble on expression in E. coli": "not soluble"},
      {"sequence": "MQPLLEAQKKLLPDLLDVMQKRYQILHSISLMAPIGRRALAASLGMSERVLRSETEFLKGQNLLSADVSGMRLTEEGQALLHTLNDLMREALGLKELEAALQEQLGIPRVIVVAGDSDRSPWVKKEMGRACVACMKELLEPGDIVAVAGGTTMAAVAEMMTPDSKLRDVLFVPARGGLGEDVENQANTICAKMAEKAMGRYRLLHVPDQLSDEAYASLVEEPAVKEVLELIQSCRMVVHGIGEAVTMAKRRKTPPVEMEKIIARHAVAEAFGYYFNEYGDVVHKVKTVGIQLEHLPHVEHVIAVAGGASKAKAIRAYMKRAPHSLLVTDEGAAKAFVGE", "soluble on expression in E. coli": "not soluble"},
      {"sequence": "MHNKIVRIASSALTGGKLLEKLKPLTRWEVQWDPNKTKCLGITREVTFKDYETTWAFLTRVSMRSHLWGHHPLIHTSYTWVKLELHTHDIDPKDGAHSQLSDIDVRMAKRIDSYIDEMTT", "soluble on expression in E. coli": "not soluble"},
      {"sequence": "MGLWFEEGAEERQVLGPFREFLKAEVAPGAAERDRTGAFPWDLVRKLAEFGVFGALVPEAYGGAGLSTRLFARMVEAIAYYDGALALTVASHNSLATGHILLAGSEAQKEAFLPKLASGEALGAWGLTEPGSGSDAAALKTKAEKVEGGWRLNGTKQFITQGSVAGVYVVMARTDPPPSPERKHQGISAFAFFRPERGLKVGRKEEKLGLTASDTAQLILEDLFVPEEALLGERGKGFYDVLRVLDGGRIGIAAMAVGLGQAALDYALAYAKGREAFGRPIAEFEGVSFKLAEAATELEAARLLYLKAAELKDAGRPFTLEAAQAKLFASEAAVKACDEAIQILGGYGYVKDYPVERYWRDARLTRIGEGTSEILKLVIARRLLEAV", "soluble on expression in E. coli": "soluble"},
      {"sequence": "MLWLALGPFPAMENQVLVIRIKIPNSGAVDWTVHSGPQLLFRDVLDVIGQVLPEATTTAFEYEDEDGDRITVRSDEEMKAMLSYYYSTVMEQQVNGQLIEPLQIFPRACKPPGERNIHGLKVNTRAGPSQHSSPAVSDSLPSNSLKKSSAELKKILANGQMNEQDIRYRDTLGHGNGGTVYKAYHVPSGKILAVKVILLDITLELQKQIMSELEILYKCDSSYIIGFYGAFFVENRISICTEFMDGGSLDVYRKMPEHVLGRIAVAVVKGLTYLWSLKILHRDVKPSNMLVNTRGQVKLCDFGVSTQLVNSIAKTYVGTNAYMAPERISGEQYGIHSDVWSLGISFMELALGRFPYPQIQKNQGSLMPLQLLQCIVDEDSPVLPVGEFSEPFVHFITQCMRKQPKERPAPEELMGHPFIVQFNDGNAAVVSMWVCRALEERRSQQGPP", "soluble on expression in E. coli": "soluble"}
    ]}
  ]
}
